Key:
human CLDN18.2 = human CLDN18.2 (human); assay: cell-based or functional assay
human CLDN18.1 = molecular target: T1, human CLDN18.1 (human, UniProt P56856 1-261); assay: flow cytometry on CHO-CLDN18.1 cells
T1 construct: also called CHO-CLDN18.1 cells
Procedure: Flow cytometry was used to detect the binding capacity of anti-CLDN18.2 antibodies to cells expressing CLDN18.2, and the specificity of not binding to CLDN18.1 of the antibody was further detected. The experimental procedure overview was as follows: CLDN18.2 positive cells (KATOIII or CHO-CLDN18.2) and negative cells (CHO-CLDN18.1) were collected, washed once with PBS, resuspended in PBS, and plated on a 96-well V-bottom plate (Cat. No. 3897, Costar) at 0.1 million cells/50 μL/well. The antibody was pre-diluted to 333.2 nM with PBS, then diluted 2-fold with 9 gradients, added at 50 μL/well to the cells in the 96-well V-bottom plate described above, and mixed well (final antibody concentrations: 166.6, 83.3, 41.6, 20.8, 10.4, 5.2, 2.6, 1.3, 0.65, and 0.325 nM). The mixture was incubated at 4° C. for 1 h and washed twice with PBS. Then 100 μL of 1:500 diluted goat anti-human IgG-Fc PE fluorescent secondary antibody (Cat. No. 12-4998-82, eBioscience) was added. The mixture was incubated at 4° C. for 1 h, washed twice with PBS, and analyzed with a CytoFLEX flow cytometer (model: AOO-1-1102, Beckman). [0192]

T1 sequence (P56856 whole entry): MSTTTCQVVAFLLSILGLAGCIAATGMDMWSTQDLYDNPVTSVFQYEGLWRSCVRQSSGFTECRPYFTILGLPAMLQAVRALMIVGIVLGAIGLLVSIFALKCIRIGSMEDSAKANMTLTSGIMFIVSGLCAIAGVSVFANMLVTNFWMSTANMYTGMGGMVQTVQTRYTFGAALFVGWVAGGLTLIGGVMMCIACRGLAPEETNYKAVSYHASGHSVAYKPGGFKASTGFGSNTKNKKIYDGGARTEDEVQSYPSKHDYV

B1: IMAB362 (antibody, V domains shown)
VH: QVQLQQPGAELVRPGASVKLSCKASGYTFTSYWINWVKQRPGQGLEWIGNIYPSDSYTNYNQKFKDKATLTVDKSSSTAYMQLSSPTSEDSAVYYCTRSWRGNSFDYWGQGTTLTVSS
VL: DIVMTQSPSSLTVTAGEKVTMSCKSSQSLLNSGNQKNYLTWYQQKPGQPPKLLIYWASTRESGVPDRFTGSGSGTDFTLTISSVQAEDLAVYYCQNDYSYPFTFGSGTKLEIKR
With B1 the “ADCC Reporter Bioassay (Jurkat-NFAT-luc-FcγRIIIa effector cells, luciferase) EC50” value (human CLDN18.2) was 795 pM and the “CDC cell killing rate (CCK-8, 5% human serum complement) IC50” value (human CLDN18.2) was 5870 pM.

B2: H239H-2a-K-6a (antibody, human IgG1, kappa, V domains shown)
VH: EVQLLESGGGLVQPGGSLRLSCAASGFTFSDYGMHWVRQAPGKGLEWVAYISRGRSTTYSTDTVKGRFTISRDSSKNTLYLQMNSLRAEDTAVYYCARGSYYGNAMDYWGQGTLVTVSS
VL: DIVMTQSPDSLAVSLGERATINCKSSQSLLNSGNQRNYLTWYQQKPGQPPKLLIYWASTRESGVPDRFSGSGSGTDFTLTISSLQAEDVAVYYCQSAYSYPFTFGGGTKLEIKR
notes: Humanized antibody derived from CH239H-2-K-6, human IgG1/kappa constant regions; also called H239H-2a-K-6α
B2: no binding (human CLDN18.1).

B3: H239H-2b-K-6a (antibody, human IgG1, kappa, V domains shown)
VH: EVQLLESGGGLVQPGGSLRLSCAASGFTFSDYGMHWVRQAPGKGLEWVAYISRGRSTTYSTDTVKGRFTISRDNSKNTLYLQMNSLRAEDTAVYYCARGSYYGNAMDYWGQGTLVTVSS
VL: DIVMTQSPDSLAVSLGERATINCKSSQSLLNSGNQRNYLTWYQQKPGQPPKLLIYWASTRESGVPDRFSGSGSGTDFTLTISSLQAEDVAVYYCQSAYSYPFTFGGGTKLEIKR
notes: Humanized antibody derived from CH239H-2-K-6, human IgG1/kappa constant regions; also called H239H-2b-K-6α
B3 was tested, and the “ADCC Reporter Bioassay (Jurkat-NFAT-luc-FcγRIIIa effector cells, luciferase) EC50” value (human CLDN18.2) was 62.5 pM, the “CDC cell killing rate (CCK-8, 5% human serum complement) IC50” value (human CLDN18.2) was 291 pM and the binding result (human CLDN18.1) was “no binding”.

From US20240092892A1 (BIO THERA SOLUTIONS, published 2024)
